From patent publication US20190263898A1 (UNIVERSITE GRENOBLE ALPES, published 2019) come the findings set out here.

Assay [1] addresses T1, Tau protein in oligomer form (preparation of htau40 enriched with Tau oligomers, 48 h fibrillation with … (Homo sapiens (Human), UniProt P10636 2-758)).
T1 construct: Oligomeric aggregate of full-length htau40; also called the oligomers; low-molecular-weight tau polymers
Nature of the assay: ELISA on preparation enriched with Tau oligomers. On the technique in general: In an ELISA, binding on a coated surface is turned into a signal by an enzyme label.

Assay [2] has as its target T2, truncated Tau protein in fiber form (polymerized R3 peptide) (also: polymerized (fiber form)).
T2 construct: also called R3 peptide fibers; Mimetics (the R3 region of polymerized Tau)
T2 peptide: VQIVYKPVDLSKVTSKCG
As to the kind of experiment: ELISA on polymerized R3 peptide.

Assay [3] addresses T3, Tau protein in fiber form (preparation of htau40 enriched with Tau fibers, 72 h fibrillation with heparin) (Homo sapiens (Human), UniProt P10636 2-758).
T3 construct: Fibrillar aggregate of full-length htau40; also called Tau-F (Tau fibers); the fibers
Nature of the assay: ELISA on preparation enriched with Tau fibers.

In assay [4] the target is T3, Tau protein in fiber form (preparation …). Nature of the assay: ELISA, 2C5 titrated on a preparation enriched with Tau fibers (Tau-F).
For assay [5], the target named is T2, truncated Tau protein in fiber form …. As to the kind of experiment: ELISA, unlabeled 2C5 titrated on polymers of the R3 sequence of Tau (R3 Fibers), PBS with 1% BSA, pH 7.5; PBS wells as control. As to the method: (§1) The ELISAs are carried out before (FIG. 5) and after (FIG. 6) radiolabeling. It is noted that, after radiolabeling, the ligand retains good affinity for its target (FIG. 6).

Assay [6] deals with T4, native Tau protein (monomeric form) (Homo sapiens (Human), UniProt P10636 2-758).
T4 construct: also called Tau-N (native taus); Tau in monomer form
T4 sequence (P10636 other isoform, or with tags, fused parts or gaps limits assumed): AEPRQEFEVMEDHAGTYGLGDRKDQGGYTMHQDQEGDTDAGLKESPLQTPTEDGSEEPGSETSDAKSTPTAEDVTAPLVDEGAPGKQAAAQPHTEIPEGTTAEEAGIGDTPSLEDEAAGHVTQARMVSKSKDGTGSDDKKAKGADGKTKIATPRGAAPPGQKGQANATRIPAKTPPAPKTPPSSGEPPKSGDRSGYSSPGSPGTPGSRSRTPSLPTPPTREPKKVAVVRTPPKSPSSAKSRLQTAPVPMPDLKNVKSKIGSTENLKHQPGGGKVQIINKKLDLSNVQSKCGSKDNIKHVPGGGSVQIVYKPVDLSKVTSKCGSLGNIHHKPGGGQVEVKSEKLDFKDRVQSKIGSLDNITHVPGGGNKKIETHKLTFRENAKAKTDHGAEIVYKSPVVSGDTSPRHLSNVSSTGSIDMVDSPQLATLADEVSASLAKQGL
Nature of the assay: ELISA, 2C5 titrated on native Tau (Tau-N).

For assay [7], the target named is T1, Tau protein in oligomer form …. Nature of the assay: ELISA, 2C5 titrated on a preparation enriched with Tau oligomers (Tau-O).
Assay [8] has as its target T2, truncated Tau protein in fiber form …. Nature of the assay: ELISA, 2C5 titrated on polymerized R3 peptide (Mimes).
Assay [9] shares this target. As to the kind of experiment: ELISA-format assay with 2C5 radiolabeled with iodine 125 on polymers of the R3 sequence of Tau, CPM readout (sheet title: RIA 125I 2C5), PBS with 1% BSA, pH 7.5; PBS wells as control. As to the method:
as §1

Ends that are not written are not given here.

T1 sequence (P10636 other isoform, or with tags, fused parts or gaps limits assumed): as above
T3 sequence (P10636 other isoform, or with tags, fused parts or gaps limits assumed): as above

B1: 2C5 nanobody (VHH) with C-terminal myc and six histidine residues tag (VHH)
VHH: QVQLVQSGGGLVQAGGSLRLSCAASGRTFSSDTLAWFRQAPGKEREFVASISPSGGVTYYEDSVKGRFTISRDNSKNTVLLQMNSLTPEDTAVYYCNRDPKYGNTRYWGQGTQVTVSS
notes: also called 2C5 Nb; 2C5 (VHH)
Turning to B1, the Kd in assay [1] came out at 5 nM; in [2], 50 nM; in assay [3], 6 nM; in assay [4], 5.02 nM; in assay [5], 14.4 nM; in [6], 1790 nM. In addition, the results for the equilibrium dissociation constant (Kd) in assay [7] and in assay [8] were 6.28 nM and 51.8 nM, respectively. In addition, the half-maximal effective concentration (EC50 (read off the curve)) in assay [8] was around 50 nM.

B2: 2C5 nanobody radiolabeled with iodine 125 (VHH)
VHH: QVQLVQSGGGLVQAGGSLRLSCAASGRTFSSDTLAWFRQAPGKEREFVASISPSGGVTYYEDSVKGRFTISRDNSKNTVLLQMNSLTPEDTAVYYCNRDPKYGNTRYWGQGTQVTVSS
modifications: radiolabeled with iodine 125 (site not stated)
Consider B2, for which binding in [9] was put at a Kd of 162 nM.

For orientation: Kd means the free concentration of one partner at which half of the binding sites on the other are occupied at equilibrium, for simple one-to-one binding. The low end stands for higher affinity, the high end for lower affinity. What is called EC50 (read off the curve) is the concentration that produces a half-maximal response. A lower EC50 (read off the curve) goes with an effect from little substance.
